Test [1] concerns the target T1, HCoV-HKU1 spike protein (Sino Biological 40606-V08B) (HCoV-HKU1, UniProt Q0ZME7 13-1295).
T1 sequence: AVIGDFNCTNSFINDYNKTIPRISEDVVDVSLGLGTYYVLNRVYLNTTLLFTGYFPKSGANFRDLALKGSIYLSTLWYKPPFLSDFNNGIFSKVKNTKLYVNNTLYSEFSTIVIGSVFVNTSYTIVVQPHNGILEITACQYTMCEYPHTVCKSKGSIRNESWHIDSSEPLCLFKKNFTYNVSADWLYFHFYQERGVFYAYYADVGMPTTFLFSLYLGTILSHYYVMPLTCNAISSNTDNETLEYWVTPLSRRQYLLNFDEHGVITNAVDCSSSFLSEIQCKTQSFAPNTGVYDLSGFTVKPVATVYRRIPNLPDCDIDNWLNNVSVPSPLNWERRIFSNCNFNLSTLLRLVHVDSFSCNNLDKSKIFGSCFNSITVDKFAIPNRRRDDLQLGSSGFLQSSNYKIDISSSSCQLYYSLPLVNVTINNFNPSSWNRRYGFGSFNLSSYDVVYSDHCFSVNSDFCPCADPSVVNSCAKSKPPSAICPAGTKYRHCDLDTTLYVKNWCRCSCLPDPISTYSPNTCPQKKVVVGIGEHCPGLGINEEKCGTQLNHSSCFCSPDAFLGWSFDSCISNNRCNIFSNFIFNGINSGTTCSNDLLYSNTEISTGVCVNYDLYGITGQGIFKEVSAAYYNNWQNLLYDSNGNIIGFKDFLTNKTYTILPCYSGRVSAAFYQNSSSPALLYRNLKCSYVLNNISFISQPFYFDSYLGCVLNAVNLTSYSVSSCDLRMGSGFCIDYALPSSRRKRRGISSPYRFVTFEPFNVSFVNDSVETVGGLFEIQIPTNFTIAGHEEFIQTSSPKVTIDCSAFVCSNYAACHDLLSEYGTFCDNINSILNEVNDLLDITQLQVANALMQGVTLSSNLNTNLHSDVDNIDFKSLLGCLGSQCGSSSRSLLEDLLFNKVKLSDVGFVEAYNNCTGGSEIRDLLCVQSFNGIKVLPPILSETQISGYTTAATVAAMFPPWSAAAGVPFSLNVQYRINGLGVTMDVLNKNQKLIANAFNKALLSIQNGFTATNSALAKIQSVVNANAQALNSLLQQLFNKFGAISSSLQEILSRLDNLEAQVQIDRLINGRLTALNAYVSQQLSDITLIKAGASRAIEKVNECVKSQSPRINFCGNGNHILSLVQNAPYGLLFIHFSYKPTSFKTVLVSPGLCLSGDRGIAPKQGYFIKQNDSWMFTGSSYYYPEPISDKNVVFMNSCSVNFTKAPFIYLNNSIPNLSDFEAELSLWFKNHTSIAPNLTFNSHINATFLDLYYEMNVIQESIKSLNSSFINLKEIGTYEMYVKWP
Nature of the test: bead flow cytometry, AUC minus CD4. For orientation: A flow cytometer gives signals particle by particle.

A further test deals with T2, MERS-CoV spike protein (MERS-CoV, UniProt K9N5Q8 18-1291).
T2 sequence: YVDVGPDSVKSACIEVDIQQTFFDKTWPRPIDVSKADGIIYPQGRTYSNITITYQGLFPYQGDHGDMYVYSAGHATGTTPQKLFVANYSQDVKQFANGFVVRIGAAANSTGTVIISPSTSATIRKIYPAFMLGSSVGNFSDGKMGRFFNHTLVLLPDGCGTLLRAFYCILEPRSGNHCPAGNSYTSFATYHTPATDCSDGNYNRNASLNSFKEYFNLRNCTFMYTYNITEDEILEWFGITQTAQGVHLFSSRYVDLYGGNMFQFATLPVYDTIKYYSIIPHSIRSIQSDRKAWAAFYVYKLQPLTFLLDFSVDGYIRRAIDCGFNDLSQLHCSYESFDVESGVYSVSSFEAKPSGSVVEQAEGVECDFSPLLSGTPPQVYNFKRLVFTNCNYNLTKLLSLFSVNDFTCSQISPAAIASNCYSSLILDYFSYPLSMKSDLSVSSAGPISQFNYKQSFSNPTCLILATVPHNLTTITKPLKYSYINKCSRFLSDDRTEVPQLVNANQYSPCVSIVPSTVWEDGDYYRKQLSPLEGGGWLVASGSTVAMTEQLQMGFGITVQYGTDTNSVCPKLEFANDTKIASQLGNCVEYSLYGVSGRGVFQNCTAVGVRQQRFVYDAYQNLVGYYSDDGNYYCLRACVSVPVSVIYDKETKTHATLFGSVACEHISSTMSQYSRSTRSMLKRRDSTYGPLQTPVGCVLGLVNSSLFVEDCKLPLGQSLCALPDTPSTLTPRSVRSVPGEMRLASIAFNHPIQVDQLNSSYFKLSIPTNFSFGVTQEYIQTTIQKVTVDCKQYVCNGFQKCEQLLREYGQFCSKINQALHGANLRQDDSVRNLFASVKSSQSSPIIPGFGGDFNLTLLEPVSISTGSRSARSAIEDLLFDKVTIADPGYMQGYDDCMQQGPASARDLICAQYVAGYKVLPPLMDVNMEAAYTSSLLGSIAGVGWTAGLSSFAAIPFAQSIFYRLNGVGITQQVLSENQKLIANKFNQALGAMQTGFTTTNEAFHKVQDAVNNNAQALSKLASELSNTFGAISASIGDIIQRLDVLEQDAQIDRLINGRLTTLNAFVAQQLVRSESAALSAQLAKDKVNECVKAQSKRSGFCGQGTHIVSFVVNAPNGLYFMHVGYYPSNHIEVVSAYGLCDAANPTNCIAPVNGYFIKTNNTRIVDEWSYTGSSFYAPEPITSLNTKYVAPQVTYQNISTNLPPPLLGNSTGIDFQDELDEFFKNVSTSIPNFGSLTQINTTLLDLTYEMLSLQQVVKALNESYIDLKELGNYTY
Nature of the test: bead flow cytometry, AUC minus CD4.

B1: COV44-37 (antibody, V domains shown)
VH: QVQLVQSGAEVKKPGASVMLSCRASGYTFINDYMHWVRQAPGEGFEWMGIINPTGDGTKFAQKFQGRVTMTRDSSTTTVHMELRSLTSGDTAVYFCATGGRQSAFDIWGQGTVVIVSS
VL: DIVMTQSPLSLPVTPGESASISCRSSQSLLQNNGYNYLDWYLQKPGQSPQLLIYLGSYRASGVPDRFSGSGSGTDFTLKISRVEAEDVGVYYCVQAQQAPPLYTFGQGTKLQIK
Take B1: the binding result in test [1] was “no binding (tested: 200 µg/mL)”.

B2: COV44-74 (antibody, V domains shown)
VH: QVQLVQSGAEVKKPGASVKVSCKASGYTFSSYYMNWVRQAPGQGLEWVGLISPSAGYTAYAQMFQGRVTMTRDTSTSTVYMELSSLRSEDTAVYYCARVAVAGPNDYWGQGTLVTVSS
VL: EIVLTQSPGTLSLSPGERATLSCRASQSISSSYLAWYQQKPGQAPRLVILAASTRATGIPDRFSGSGSGTDFTLTISRLEPEDFALYYCQHYRSSPPLWTFGQGTKVEIR
With B2, the binding result in test [1] is on record as “no binding (tested: 200 µg/mL)”.

B3: COV57-38 (antibody, V domains shown)
VH: QVQLVESGGGVVQPGRSLRLSCEASGFNFNNYGMHWVRQAPGKGLEWVAVISYEGSKKYYEDSVRGRFTISRDFSKNTLYLQMNSLRAEDTAVYYCAKANEIFWLGQFKNDALDFWGQGTMVTVSS
VL: QSVLTQPPSASGTPGQRVAVSCSGSSSNIGTNFVNWYQHLPRTAPKLLIYRDNQRPSGVPDRFSGSKSGTSASLAISGLQSEDEADYYCAVWDDSLNGQVFGGGTKVTVL
As to B3, the binding result with MERS-CoV spike protein was “no binding (tested: 200 µg/mL)”.

B4: COV77-09 (antibody, V domains shown)
VH: EVQLVESGGGLVQPGRSLTLSCSGSGFTFGDYSMSWVRQAPGKGLEWLGFIRSQTYGGTTQYAASVQGRFTILRDDSKSIAYLQMNSLKTEDTAVYYCTRNYGVGDYWGQGTLVTVSS
VL: DIVMTQSPASLAVSLGERATIHCRSSLSVLNSSNNKNYLAWYQQKAGQPPKLLMYWASTRESGVPERFSGSGSGTDFTLTISSLEAGDVAVYYCQQYYDKLSLTFGGGTKVEIK
Take B4: in the test with MERS-CoV spike protein, the binding result is “no binding (tested: 200 µg/mL)”.

B5: COV57-34 (antibody, V domains shown)
VH: QVQLVQSGTEVKKPGSSVKVSCRASGGTLSSYSVSWVRQAPGQGLEWMGRIIPILDKKTYAQKYQGRVTIIADTSTSTVYMELSSLKSDDSAVYYCTTFDYDTSGQRDQHDYWGQGTPVTVSS
VL: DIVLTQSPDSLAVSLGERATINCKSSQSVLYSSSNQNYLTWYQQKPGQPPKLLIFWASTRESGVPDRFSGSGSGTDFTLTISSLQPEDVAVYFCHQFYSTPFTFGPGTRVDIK
With B5, the binding result with MERS-CoV spike protein is “no binding (tested: 200 µg/mL)”.

B6: COV57-13 (antibody, V domains shown)
VH: QVQLVQSGTEVKKPGSSVKVSCRASGGTLSSYSVSWVRQAPGQGLEWMGRIIPILDKKTYAQKYQGRVTIIADTSTSTVYMELSSLKSEDSAVYYCTTFDYDTSGQRDQHDYWGQGTLVTVSS
VL: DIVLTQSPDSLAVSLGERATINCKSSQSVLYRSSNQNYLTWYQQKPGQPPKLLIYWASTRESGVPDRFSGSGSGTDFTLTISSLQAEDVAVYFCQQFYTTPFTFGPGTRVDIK
For B6, the binding result with MERS-CoV spike protein was “no binding (tested: 200 µg/mL)”.

B7: COV49-54 (antibody, V domains shown)
VH: EVQLVESGGGLVQPGGSLRLSCAASGFIVSSNYMSWVRQAPGKGLEWVSMIYSGGSTVYADSVKGRFTISRDISKNTLYLQMNSLRAEDTAVYYCALETFDYWGQGTLVTVSS
VL: DIQMTQSPSSLSASVGDRVTITCRASQGITNHLAWYQQKPGKVPKLLIYAASTLQSGVPSRFSGSGYGTDFTLTISSLQPEDVASYYCQKYDSAPRTFGQGTKVEIK
Turning to B7, in the test with MERS-CoV spike protein, the binding result was “no binding (tested: 200 µg/mL)”.
